Laboratory results from the supplement of paper PMC12855868.

B1: library; numbered along this chain (parent)
chain: MAAAGGARLLRAASAVLGGPAGRWLHHAGSRAGSSGLLRNRGPGGSAEASRSLSVSARARSSSEDKITVHFINRDGETLTTKGKVGDSLLDVVVENNLDIDGFGACEGTLACSTCHLIFEDHIYEKLDAITDEENDMLDLAYGLTDRSRLGCQICLTKSMDNMTVRVPETVADARQSIDVGKTS

Variants of: B1
Assay: scaled log2 fold change in cell abundance, elesclomol vs control (0 = silent mean, 1 = nonsense mean) (scaled log2 ratio); higher = higher viability under elesclomol (loss of FDX1 cuproptosis function)
Conditions: glucose 10 mM
[1] = with ABC1 FDX1 KO, elesclomol 5 nM, 14 days
[2] = with HEK293T FDX1 KO, elesclomol 40 nM, 11 days
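Further: variant abundance is its share of total variant reads in each endpoint sample, from next-generation sequencing of the integrated ORF PCR-amplified out of genomic DNA.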

| Variant | scaled log2 fold change [1] | scaled log2 fold change [2] |
| --- | --- | --- |
| MAAAGGARLLRAASAVLGGPAGRWLHHAGSRAGSSGLLRNRGPGGSAEASRSLSVSARARSSSEDKITVHFINRDGETLTTKGKVGDSLLDVVVENNLDIDGFGACEGTLACSTRHLIFEDHIYEKLDAITDEENDMLDLAYGLTDRSRLGCQICLTKSMDNMTVRVPETVADARQSIDVGKTS | 1.02 | 1.68 |
| MAAAGGARLLRAASAVLGGPAGRWLHHAGSRAGSSGLLRNRGPGGSAEASRSLSVSARARSSSEDKITVHFINRDGETLTTKGKVGDSLLDVVVENNLDIDGFGACEGTLACSTIHLIFEDHIYEKLDAITDEENDMLDLAYGLTDRSRLGCQICLTKSMDNMTVRVPETVADARQSIDVGKTS | 1.04 | 0.907 |
| MAAAGGARLLRAASAVLGGPAGRWLHHAGSRAGSSGLLRNRGPGGSAEASRSLSVSARARSSSEDKITVHFINRDGETLTTKGKVGDSLLDVVVENNLDIDGFGACEGTLACSTQHLIFEDHIYEKLDAITDEENDMLDLAYGLTDRSRLGCQICLTKSMDNMTVRVPETVADARQSIDVGKTS | 0.93 | 1.07 |
| MAAAGGARLLRAASAVLGGPAGRWLHHAGSRAGSSGLLRNRGPGGSAEASRSLSVSARARSSSEDKITVHFINRDGETLTTKGKVGDSLLDVVVENNLDIDGFGACEGTLACSTNHLIFEDHIYEKLDAITDEENDMLDLAYGLTDRSRLGCQICLTKSMDNMTVRVPETVADARQSIDVGKTS | 0.976 | 1.34 |
| MAAAGGARLLRAASAVLGGPAGRWLHHAGSRAGSSGLLRNRGPGGSAEASRSLSVSARARSSSEDKITVHFINRDGETLTTKGKVGDSLLDVVVENNLDIDGFGACEGTLACSTKHLIFEDHIYEKLDAITDEENDMLDLAYGLTDRSRLGCQICLTKSMDNMTVRVPETVADARQSIDVGKTS | 1.02 | 0.763 |
| MAAAGGARLLRAASAVLGGPAGRWLHHAGSRAGSSGLLRNRGPGGSAEASRSLSVSARARSSSEDKITVHFINRDGETLTTKGKVGDSLLDVVVENNLDIDGFGACEGTLACSTPHLIFEDHIYEKLDAITDEENDMLDLAYGLTDRSRLGCQICLTKSMDNMTVRVPETVADARQSIDVGKTS | 1.1 | 1.51 |
| MAAAGGARLLRAASAVLGGPAGRWLHHAGSRAGSSGLLRNRGPGGSAEASRSLSVSARARSSSEDKITVHFINRDGETLTTKGKVGDSLLDVVVENNLDIDGFGACEGTLACSTLHLIFEDHIYEKLDAITDEENDMLDLAYGLTDRSRLGCQICLTKSMDNMTVRVPETVADARQSIDVGKTS | 1.09 | 1.15 |
| MAAAGGARLLRAASAVLGGPAGRWLHHAGSRAGSSGLLRNRGPGGSAEASRSLSVSARARSSSEDKITVHFINRDGETLTTKGKVGDSLLDVVVENNLDIDGFGACEGTLACSTMHLIFEDHIYEKLDAITDEENDMLDLAYGLTDRSRLGCQICLTKSMDNMTVRVPETVADARQSIDVGKTS | 1.03 | 1.19 |
